Data from patent EP4763862A1 (Beijing Tide Pharmaceutical Co., Ltd., dated 2026).
Numbering of substitutions follows the chain as printed.

T1: B7-H3 on NCI-H446 cells (UniProt Q5ZPR3 29-534)
T1 construct: whole, on cells
T1 sequence (looked up): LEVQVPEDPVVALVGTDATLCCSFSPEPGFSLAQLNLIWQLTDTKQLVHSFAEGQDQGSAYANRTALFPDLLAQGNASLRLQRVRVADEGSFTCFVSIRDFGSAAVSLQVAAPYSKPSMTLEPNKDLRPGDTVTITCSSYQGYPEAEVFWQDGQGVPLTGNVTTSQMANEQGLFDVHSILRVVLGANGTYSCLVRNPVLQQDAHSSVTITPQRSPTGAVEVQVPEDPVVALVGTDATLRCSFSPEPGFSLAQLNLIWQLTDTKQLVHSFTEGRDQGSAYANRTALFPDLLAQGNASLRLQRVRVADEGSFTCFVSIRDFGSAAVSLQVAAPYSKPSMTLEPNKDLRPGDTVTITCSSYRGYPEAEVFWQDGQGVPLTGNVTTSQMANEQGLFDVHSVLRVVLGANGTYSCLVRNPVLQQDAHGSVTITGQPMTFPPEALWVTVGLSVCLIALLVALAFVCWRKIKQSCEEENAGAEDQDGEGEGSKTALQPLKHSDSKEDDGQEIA

T2: mouse B7-H3 on CHO-mouse B7-H3 cells (mouse, UniProt Q8VE98 29-316)
T2 construct: whole, on cells; also called CHO-S-mouse-B7-H3; murine B7-H3
T2 sequence (looked up): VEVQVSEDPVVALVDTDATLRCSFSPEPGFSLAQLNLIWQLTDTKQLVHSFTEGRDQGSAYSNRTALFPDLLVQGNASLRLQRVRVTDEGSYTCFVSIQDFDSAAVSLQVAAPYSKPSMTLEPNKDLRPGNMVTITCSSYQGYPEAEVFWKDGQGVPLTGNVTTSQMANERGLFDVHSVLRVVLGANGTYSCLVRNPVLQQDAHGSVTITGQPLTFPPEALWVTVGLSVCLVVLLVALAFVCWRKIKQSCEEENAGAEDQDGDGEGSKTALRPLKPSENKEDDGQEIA

B1: cAb1-uIgG1K (antibody)
heavy: not shown
light: DVLMTQTPLSLPVSLGDQVSISCRASQSLANSYGKTYLSWYLHKPGQSPQLLIYGISNRFSGVPDRFSGSGSGTDFTLKISTIKPEDLGMYYCLHGTHQPLTFGAGTKLELKRTVAAPSVFIFPPSDEQLKSGTASVVCLLNNFYPREAKVQWKVDNALQSGNSQESVTEQDSKDSTYSLSSTLTLSKADYEKHKVYACEVTHQGLSSPVTKSFNRGEC
notes: Parental chimeric antibody of the cAb1 series; also called cAb1-ulgG1K
B2: cAb2-z2-p6 (antibody, human IgG1, kappa, V domains shown)
VH: QVQLVESGAVVKKPGASVKVSCKASGYTLSDFNMDWVRQAPGKSLEWMGDINPNYDTITYNQKFRGRVTLTVDRSINTAYMELSRLRSDDTAVYYCARGELGRYFYVWGAGTMVTVSS
VL: DIQLTQPPSSLSASVGDRVTITCRASENVYSYLAWYQQKPGRSPQLLVYNAKTLQEGVPSRFSGSGSGTQFTLTISSLQPEDFADYYCQHHYGTPWTFGGGTKVEIKR
notes: Humanized from 28-B1-E8-C11; Human IgG1 / kappa
B3: cAb2-z4-p6 (antibody, human IgG1, kappa, V domains shown)
VH: B2 VH
VL: B2 VL with F83V
notes: as for B2
B4: cAb2-z5-p6 (antibody, human IgG1, kappa, V domains shown)
VH: B2 VH
VL: B2 VL with Q55P, Q89S
notes: as for B2
B5: cAb2-z3-p6 (antibody, human IgG1, kappa, V domains shown)
VH: B2 VH
VL: B2 VL with S10F, Q70E
notes: as for B2
B6: 28-B1-E8-C11 (antibody, human IgG1, kappa, V domains shown)
VH: EVKLVESGAVLVKPGASVKISCKASGYTLSDFNMDWVKQSQGKSLEWVGDINPNYDTITYNQKFRGKATLTVDRSSNTAYMELRSLTSEDSAVYYCARGELGRYFYVWGAGTTVTVSS
VL: DIQLTQPPASLSASVGETVTITCRASENVYSYLAWYRQKQGRSPQLLVYNAKTLPEGVPSRFSGSGSGTQFSLKINSLQTEDLGDYYCQHHYGTPWTFGGGTKLEIKR
notes: parent of the cAb2 humanized antibodies; also called CC11
B7: cAb2-z0-p9 (antibody, human IgG1, kappa, V domains shown)
VH: B6 VH
VL: B2 VL with F83V
notes: as for B2
B8: cAb2-z1-p9 (antibody, human IgG1, kappa, V domains shown)
VH: B6 VH
VL: B2 VL with Q55P, Q89S
notes: Humanized from 28-B1-E8-C11; Human IgG1 / kappa; also called cAb2-zl-p9
B9: 16-D10-E1-E1 (antibody, human IgG1, kappa, V domains shown)
VH: EVQLQQSGPELVRPGVSVKISCKGSGYTFTDYAMHWVKQSHAKSLEWIGVINTYSGNTYYSQKFKGKATMTVDKSSSTAYMELARLTSEDSAIYYCARGAGYFPYWYFDVWGAGTTVTVSS
VL: DIQMIQSPSYLAASPGETITINCRASKSISKYLAWYQEKPGKTNKLLIYSGSTLQSGIPSRFSGSGSGTDFTLTISSLEPEDFAMYYCQQHYEYPYTFGGGTKLEIKR
B10: 9-F1-D9-F10 (antibody, human IgG1, kappa, V domains shown)
VH: EVQLVESGGGLVQPGGSLRVSCATSGFTFSDYYMSWVRQPPGKALEWLGFIRNKINGYTTEYSASVKGRFTISRDNSQSILYLQMNTLRAEDSATYYCTRDSSQRPFAYWGQGTLVTVSA
VL: DIVMTQSPSSLSVSAGEKVTMTCKSSQSLLNSRSQKNFLAWYQQKPGQPPKLLIYGASTRESGVPDRFTGSGSGTDFTLTISNVQAEDLAVYYCQNDLTYPLTFGAGTKLELKR
B11: 9-A2-G3-H11 (antibody, human IgG1, kappa, V domains shown)
VH: EVQLQQSGPELVRPGESVKISCKGSGYTFTDYAIHWVKQSHAKSLEWIGVISTYYDNTYYNQKFKGRATMTVDKSSSTAYMELARLTSEDSAIYYCARGYGSSFNWYFDVWGAGTTVTVSS
VL: DIVMTQSPSSLAVSAGEKVTMSCKSSQSLLNSRTRKNYLAWYQQKPGQSPKLLIYWASTRESGVPDRFTGSGSGTDFTLTITSVQAEDLAVYYCKQSYNLYTFGGGTKLEIKR
B12: 48-B4-F4-E4 (antibody, human IgG1, kappa)
heavy: not shown
light: B1 light
notes: also called CE4
B13: 28-B5-B6-C6 (antibody, human IgG1, kappa, V domains shown)
VH: EVKLQESGPGLVKPSQSLSLTCTVTGYSITSDYAWNWIRQFPGNILEWMGYISYSGSASYNPSLQSRISVTRDTSKNQFFLQLNSVTTEDTATYYCVRSLGRRWYFGFWGAGTTVTVSS
VL: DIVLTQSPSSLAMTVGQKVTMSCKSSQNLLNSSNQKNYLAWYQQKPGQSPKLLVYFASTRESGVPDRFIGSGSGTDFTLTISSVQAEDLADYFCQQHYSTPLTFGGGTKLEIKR
B14: 19-F1-E9-B11 (antibody, human IgG1, kappa, V domains shown)
VH: EVQLQQSGPSLVKPSQTLSLTCSVTGGSITSFYWNWIRKFPGNKLEYMGYISSSGSTYYNPSLKSRISITRDTSKNQSYLQLNSVTAEDTATYYCARGGVHYGFGDYWGQGTSVTVSS
VL: DIVMTQSAPSVPVTPGESVSISCRSSKSLLHSNGNTYLYWFLQRPGQSPQLLIYRMSNLASGVPDRFSGSGSGTAFTLRISRVEAEDVGVYYCMQHLEYPLTFGAGTKLELKR
notes: also called CB11
B15: 29-A9-G8-F6 (antibody, human IgG1, kappa, V domains shown)
VH: EVQLQQSGPELVRPGVSVKISCKGSGYTFTDYSMHWVKQSHAKSLEWIGVINTSSGNTYYNLKFKGKATMTVDKSSSTAYMELARLTSEDSAIYYCSKYYGSSFHWYFDVWGAGTTVTVSS
VL: DIVMTQSPVIMSASPGEKVTMTCSASSSVSYMHWYQQKSSTSPKLWIYDTSKLASGVPGRFSGTGSGKSHSLTISSMEAEDVATYYCFQGSGYPLTFGSGTKLEIKR

Target: T1, B7-H3 on NCI-H446 cells
Assay: flow cytometry on NCI-H446 cells, goat anti-human Fc secondary

Row | EC50 [nM] | Binder
1 | 3.45 | B1
2 | 1.36 | B2
3 | 0.552 | B3
4 | 3.92 | B4
5 | 1.06 | B5
6 | 4.45 | B6
7 | 1.15 | B7
8 | 2.22 | B8

Target: T2, mouse B7-H3 on CHO-mouse B7-H3 cells
Assay: flow cytometry on CHO-mouse B7-H3 cells, antibody 10 µg/ml

Row | binding result | Binder
9 | binds | B9
10 | binds | B10
11 | binds | B11
12 | binds | B12
13 | binds | B13
14 | binds | B14
15 | binds | B15

Target: T3, B7-H3 Cyno-His (cynomolgus monkey)
T3 construct: also called cynomolgus monkey B7-H3
Assay: SPR, Biacore 8K, antibody captured by anti-human IgG Fc on CM5, B7-H3 Cyno-His as analyte, 1:1 model

Row | Kd [nM] | koff [s⁻¹] | kon [M⁻¹ s⁻¹] | Binder
16 | 3.35 | 5.47e-05 | 16300 | B1
